From patent US20200347130A1 (JIANGSU HENGRUI MEDICINE, published 2020)
Each block holds one binder with its values, some of them ahead of it.

Legend:
[1] = molecular target: T1, CD96 extracellular region with His tag (CD96-His) (human, UniProt P40200 22-519); assay: blocking cell ELISA: antibody premixed with CD96 antigen (0.5 ug/mL), binding to fixed CD155-CHO cells
T1 construct: also called CD96-ECD-His; Bio-CD96-His (biotin-labelled form)
T1 sequence: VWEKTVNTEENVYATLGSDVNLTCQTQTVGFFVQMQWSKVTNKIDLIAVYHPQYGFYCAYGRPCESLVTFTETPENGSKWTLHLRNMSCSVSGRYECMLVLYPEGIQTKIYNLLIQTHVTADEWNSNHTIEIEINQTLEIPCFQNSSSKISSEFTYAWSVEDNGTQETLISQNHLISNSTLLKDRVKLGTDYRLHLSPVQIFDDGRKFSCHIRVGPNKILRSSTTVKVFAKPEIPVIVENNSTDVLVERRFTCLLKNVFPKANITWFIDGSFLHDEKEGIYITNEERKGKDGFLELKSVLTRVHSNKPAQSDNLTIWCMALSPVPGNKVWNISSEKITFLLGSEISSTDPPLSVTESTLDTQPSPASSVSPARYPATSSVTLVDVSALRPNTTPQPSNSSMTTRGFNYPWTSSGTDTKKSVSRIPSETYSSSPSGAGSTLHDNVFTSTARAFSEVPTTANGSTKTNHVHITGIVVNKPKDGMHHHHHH
Protocol: CD155-CHO cells (constructed by Shanghai Hengrui) were seeded in 96-well culture plates at a density of 9×10⁴/100 μL/well and cultured overnight. After aspirating the supernatant, the plate was washed once with PBS, 100 μl/well of immunostaining fixation solution (Biyuntian, Cat No. P0098) was added and fixed for one hour at room temperature, and the plate was washed three times with PBS. After discarding the liquid, 250 μl/well of 5% skim milk (BD, Cat No. 232100) blocking solution diluted with PBS was added, and the plate was blocked in an incubator at 37° C. for 2.5 hours. After blocking, the blocking solution was discarded, subsequently, the plate was washed 4 times with PBST buffer (pH 7.4 PBS containing 0.05% tween-20). 50 μl/well of antigen-antibody pre-incubation solution (gradient concentrations of the hybridoma antibody to be tested and CD96-Fc at a final concentration of 0.5 μg/mL were premixed at 37° C. for 30 minutes, or gradient concentrations of humanized antibody samples and Bio-CD96-His at a final concentration of 0.5 μg/mL were premixed at 37° C. for 30 minutes) (Biotin-labeled kit, Dongren Chemical, Cat No. LK03) was added, and the plate was incubated in an incubator at 37° C. for 2 hours. After incubation, the reaction solution in the microtiter plate was discarded, the plate was washed 4 times with PBST, and 50 μl/well of HRP-labeled goat anti-human secondary antibody (Jackson Immuno Research, Cat No. 109-035-003) diluted with sample dilution or HRP-labeled streptavidin diluted with sample dilution (Sigma, Cat No. 52438) was added, followed by incubating at 37° C. for 1 hour. After washing the plate 4 times with PBST, 50 μl/well of TMB chromogenic substrate (KPL, Cat No. 52-00-03) was added, the plate was incubated at room temperature for 10-20 minutes, followed by adding 50 μl/well of 1M H₂SO₄ to stop the reaction. The absorption value was read at 450 nm with a NOVOStar microplate reader, and the EC50 value of the effect of CD96 antibody on blocking the binding between the antigens and CD155-CHO cells was calculated (see FIG. 2 and Table 16).

[2] = molecular target: T2, Biotinylated CD96 antigen (human, UniProt P40200-2 22-503, limits assumed, biotinylated); assay: competition ELISA: antibody B pre-incubated with biotinylated CD96 antigen, added to a plate coated with antibody A, HRP-streptavidin, OD450; competitor: coated ch1720
T2 sequence (looked up): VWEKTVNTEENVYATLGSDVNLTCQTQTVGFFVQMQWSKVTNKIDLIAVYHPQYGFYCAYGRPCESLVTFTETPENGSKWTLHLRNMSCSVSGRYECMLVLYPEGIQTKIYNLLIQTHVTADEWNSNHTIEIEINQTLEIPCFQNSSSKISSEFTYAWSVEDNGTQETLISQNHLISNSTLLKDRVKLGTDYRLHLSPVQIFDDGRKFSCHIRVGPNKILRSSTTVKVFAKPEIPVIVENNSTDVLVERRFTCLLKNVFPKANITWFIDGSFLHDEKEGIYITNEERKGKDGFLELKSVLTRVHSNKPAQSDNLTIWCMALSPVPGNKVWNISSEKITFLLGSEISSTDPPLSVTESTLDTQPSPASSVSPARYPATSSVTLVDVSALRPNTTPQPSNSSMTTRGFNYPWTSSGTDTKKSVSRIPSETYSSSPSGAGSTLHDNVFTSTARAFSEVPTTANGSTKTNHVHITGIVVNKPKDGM
Protocol: Competitive assays of different antibodies binding to CD96 protein were used to classify binding epitopes of the antibodies. The specific experimental methods are as follows:
Antibody A was diluted to a concentration of 2 μg/ml with PBS buffer (Shanghai Yuanpei Biotechnology Co., Ltd. Cat No. B320), pH 7.4, added to a 96-well microtiter plate (Corning, Cat No. CLS3590-100EA) at a volume of 50 μl/well, and coated at 4° C. overnight. After discarding the liquid, 250 μl/well of 5% skim milk (BD skim milk, Cat No. 232100) blocking solution diluted with PBS was added, and the plate was incubated at 37° C. for 3 hours. After blocking, the blocking solution was discarded, and the plate was washed 5 times with PBST buffer (pH 7.4 PBS containing 0.05% tween-20) and stored for later use. Antibody B was diluted to 40 μg/ml and 8 μg/ml with 1% BSA, and Biotinylated CD96 antigen was simultaneously diluted to 4 μg/mL. Subsequently, antibody B and antigen were mixed in a 1:1 volume ratio, pre-incubated at 37° C. for 45 minutes, added into the enzyme plate coated with antibody A, thus incubating the plate in an incubator at 37° C. for 1.5 hours. After incubation, the plate was washed for 5 times with PBST, and 50 μl/well of HRP-labeled streptavidin (Sigma, Cat No. 52438) diluted with sample dilution was added, followed by incubating the plate at 37° C. for 1 hour. After washing the plate 5 times with PBST, 50 μl/well of TMB chromogenic substrate (KPL, Cat No. 52-00-03) was added for color development, followed by adding 50 μl/well of 1M H₂SO₄ to stop the reaction. The absorption value was read at 450 nm with a NOVOStar microplate reader, and the OD value was used to determine whether A and B CD96 antibodies compete with each other. Antibodies that compete with each other fall into the same class of antibodies, otherwise belong to different classes of antibodies (see FIG. 3 and Table 18).

B1: ch1722 (antibody, human IgG4 S228P, kappa, V domains shown)
VH: QVQLQQPGAELVKPGTSVKLSCKASGNTFIDYWMHWVKQRPGQGLEWIGMLHPNSGTTSFNEKFKIKTTLTIDKSSSTAYMQLSSLTSEDSAIYYCASDYSGPFAYWGQGTLVTVSA
VL: QIVLTQSPGIMSAFPGEKVTMTCSASSSVNYIHWYQQKSGTSPKRWIFDTSKLASGVPARFSGSGSGTSYSLTISSMEAEDAATYYCQQWRSNPLTFGAGTKLELKR
notes: also called chi722; chimeric antibody corresponding to m1722
IC50 [1]: 0.159 nM

B4: ch1719 (antibody, human IgG4 S228P, kappa, V domains shown)
VH: QVQLKESGPGLVAPSQSLSITCTVSGFSLISYGVSWVRQPPGKGLEWLGVIWGDGNTNYHSVLISRLSIRKDDSKSQVFLKLNSLQTDDTATYYCAKNNYYGSRYGYPMDYWGQGTSVTVSS
VL: DIVMTQSHKFMSTSVGDRVSITCKATQDVGTAVAWYQQKPGHSPKLLIYWASTRHTGVPERFTGSGSGTDFTLTIDNVQSEDLADYFCQQYGSSVLTFGAGTKVELRR
notes: also called chimeric antibody corresponding to m1719
IC50 [1]: 0.137 nM

B5: ch1721 (antibody, human IgG4 S228P, kappa, V domains shown)
VH: QVQLKESGPGLVAPSQSLSITCTVSGFSLISYGVNWVRQPPGKGLEWLGVIWGDGSTNYHSALISRLSISKDDSKSQVFLNLNSLQTDDTATYYCAKNYFYGSRYGYAMDSWGQGISVTVSS
VL: DIQMTQSPASLSAAVGETVTITCRASENIYSSLAWYQQKQGKSPQLLVYNAKTLIETVASRFSGSGSGTQYSLKINSLQPEDFGSFYCQHHYGTPYTFGGGTKLEIKR
notes: also called chimeric antibody corresponding to m1721
IC50 [1]: 0.214 nM

B7: ch1720 (antibody, human IgG4 S228P, kappa, V domains shown)
VH: EFQLQQSGPELVKPGASVKISCKASAYSLTDYNMNWVKQSNGKSLEWIGVINPSYGISSYNQKFKGKATLTVDQSSSTAYMHLNSLTSEDSAVYYCARQLRLPGYFDVWGTGTTVTVSS
VL: DIKMTQSPSSKNASLGERVTITCKASQDINSYLNWFQQKPGKSPKTLIYRASRLVDGVPSRFSGSGSGQDYSLTISSLEYEDMGIYYCLKYDEFPYTFGGGTKLEIKR
notes: also called chimeric antibody corresponding to m1720
IC50 [1]: 0.149 nM

B8: ch1718 (antibody, human IgG4 S228P, kappa, V domains shown)
VH: EFQLQQSGPELVKPGASVKISCKASAYSITDYNMNWVKQSNGKSLEWIGVINPSYGITDYNQNFKDKATLTVDQSSSTAYMQLNSLTSEDSAVYYCAIQLRLPGYFDVWGTGTTVIVSS
VL: DIKMTQSPSSMYASLGERVTITCKASQDINNYLNWFQQKPGKSPKTLIYRANRLVDGVPSRFSGSGSGQDYSLTISSLEYEDMGIYYCLKYDEFPYTFGGGTKVEIKR
notes: also called chimeric antibody corresponding to m1718
IC50 [1]: 0.096 nM

Now from value to binder:

IC50 (read off the curve) [2]: ~0.5 nM
B2: h1719-010 (antibody, V domains shown)
VH: EVTLKESGPVLVKPTETLTLTCTVSGFSLSSYGVSWVRQPPGKGLEWLGVIWGDGNTNYHSVLISRLTISKDTSKSQVVLTLTNMDPVDTATYYCAKQNYYGSRYGYPIDYWGQGTTVTVSS
VL: DIQMTQSPSSVSASVGDRVTITCKATQDVGTAVAWYQQKPGKAPKLLIYWASTRHTGVPSRFSGSGSGTDFTLTISSLQPEDFATYYCQQYGSSVLTFGGGTKVEIK
notes: Only variable regions are tied to this name

IC50 (read off the curve) [2]: ~0.4 nM
B3: h1721-003 (antibody, V domains shown)
VH: EVTLKESGPVLVKPTETLTLTCTVSGFSLSSYGVNWIRQPPGKALEWLGVIWGDGSTNYHSALISRLTISKDTSKSQVVLTLTNMDPVDTATYYCAKNYFYGSRYGYAMDSWGQGTTVTVSS
VL: DIQMTQSPSSLSASVGDRVTITCRASENIYSSLAWYQQKPGKAPKLLIYNAKTLIEGVPSRFSGSGSGTDFTLTISSLQPEDFATYYCQHHYGTPYTFGGGTKVEIK
notes: Only variable regions are tied to this name; also called M721-003

IC50 (read off the curve) [2]: ~0.5 nM
B6: h1718-012 (antibody, V domains shown)
VH: EVQLVQSGAEVKKPGASVKVSCKASGYTITDYNMNWVRQAPGQRLEWIGVINPSYGITDYNQNFKDRVTITVDTSASTAYMELSSLRSEDTAVYYCAIQLRLPGYFDVWGQGTTVTVSS
VL: DIQMTQSPSSLSASVGDRVTITCKASQDINQYLNWFQQKPGKAPKTLIYRANRLVDGVPSRFSGSGSGQDYTLTISSLQPEDFATYYCLKYDEFPYTFGGGTKVEIK
notes: as for B2
